Test results reported in the supplement of paper PMC9170038.

Test system: MS2 coat protein
Assay: apparent KD of MS2 coat protein; designed switch direction (-1 OFF switch, 1 ON switch): 1; higher = weaker reporter binding
Method in brief: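 On Illumina chips, designed RNA switches with common flanks were made by stalled E. coli RNA polymerase. Titrations with SNAP-549-labelled MS2 coat protein, doubling from 0.7 or 1.5 nM to 3 µM, were done with no input, with 200 uM small-molecule ligand, or with an oligonucleotide input. Apparent KD is the median per design over clusters, from curve fits of normalised cluster fluorescence.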

[1] = input ligand: microRNA oligo, concentration not stated
[2] = Eterna round: R95, input ligand: FMN 200 uM
[3] = Eterna round: R95, input ligand: microRNA oligo, concentration not stated
[4] = Eterna round: R95, input ligand: none

Sequence: GUAGCAUACCGAGGAUAUUCAUAUUAUACAUGAGGAUCACCCAUGUAAGGCCGAUUACGGCCUUGGGAGAAGGCGGAAUGCUAC [Xeonanis - 20 Mod21] (Eterna round: R96, puzzle: Same State NG 2)
- apparent KD of MS2 coat protein (input ligand: FMN 200 uM): 18.9 nM
- apparent KD of MS2 coat protein [1]: 68.2 nM
- apparent KD of MS2 coat protein (input ligand: none): 105 nM

Sequence: GUCGGGCAAGCUUUUUUCUCGUAGUGUAAACAUGAGGAUCACCCAUGUGCUCGCCCUGGAUCUUUGGAUCGCAGAAA [Isxevevere] (puzzle: Sensor for hsa-mir-208a)
- apparent KD of MS2 coat protein [2]: 57.5 nM
- apparent KD of MS2 coat protein [3]: 34.9 nM
- apparent KD of MS2 coat protein [4]: 64.5 nM

Sequence: GUGGAGGGUUAAGGAUAUUGAAUACAUAUGUUUAACAUGAGGAUCACCCAUGUGGGUUGCGGUAUCGAGAAGGUAAAUUACUGG [salish99_SSNG2_r04_035] (Eterna round: R96, puzzle: Same State NG 2)
- apparent KD of MS2 coat protein (input ligand: FMN 200 uM): 192 nM
- apparent KD of MS2 coat protein [1]: 151 nM
- apparent KD of MS2 coat protein (input ligand: none): 133 nM

Sequence: GUGGAGGGUUGAGGAUAUUGAAUACAUAUGUUUAACAUGAGGAUCACCCAUGUGGGUUGCGGUUUCGAGAAGGUAGGUUGCUGG [salish99_SSNG2_r04_040] (Eterna round: R96, puzzle: Same State NG 2)
- apparent KD of MS2 coat protein (input ligand: FMN 200 uM): 103 nM
- apparent KD of MS2 coat protein [1]: 72 nM
- apparent KD of MS2 coat protein (input ligand: none): 111 nM

Sequence: GUGGCCCAGGCACAGGAUAUGUUUCUCGUAACAUGAGGAUCACCCAUGUGCCUAUGAGAUUUAAUGCAGAAGGGUGCACGCCACG [Atiinbe] (Eterna round: R96, puzzle: Same State 2)
- apparent KD of MS2 coat protein (input ligand: FMN 200 uM): 18.2 nM
- apparent KD of MS2 coat protein [1]: 61.3 nM
- apparent KD of MS2 coat protein (input ligand: none): 103 nM

Sequence: GUGGCGGGUUGAGGAUAUUGGUUGCCUAUGUUUAACAUGAGGAUCACCCAUGUGGGUUGCGGUUUCGAGAAGGUAGGUUGCUGG [salish99_SSNG2_r04_046] (Eterna round: R96, puzzle: Same State NG 2)
- apparent KD of MS2 coat protein (input ligand: FMN 200 uM): 228 nM
- apparent KD of MS2 coat protein [1]: 109 nM
- apparent KD of MS2 coat protein (input ligand: none): 188 nM

Sequence: GUGGGACAUGAGGAUCACCCAUGUGGGAGGGAACGAGGAUAUGUGAGGAGCGAGAAGUGAACAGAAGGCGUGGUUG [JR_SS1_Sub023] (puzzle: Same State 1)
- apparent KD of MS2 coat protein [3]: 75.3 nM

Sequence: GUGGUCAGACAUGAGGAUCACCCAUGUGGAAUAAAUAACACACAGGAUAUCUAAUAUAAAAUAUAAGAGAAGGGUGGAUUGGUG (Eterna round: R96, puzzle: Same State NG 3)
- apparent KD of MS2 coat protein [1]: 202 nM

Sequence: GUGGUCAGACAUGAGGAUCACCCAUGUGGAAUAAAUAACACACAGGAUAUGUAAUAUAGGAUAUAACAGAAGGGUGGAUUGGUG (Eterna round: R96, puzzle: Same State NG 3)
- apparent KD of MS2 coat protein [1]: 297 nM

Sequence: GUGGUCAGACAUGAGGAUCACCCAUGUGGAAUAAAUAACGUCAAGGAUAUACAAUAUAGGAUAUAGUAGAAGGUGAGAUUGGUG (Eterna round: R96, puzzle: Same State NG 3)
- apparent KD of MS2 coat protein [1]: 94.8 nM

Sequence: GUGGUCAGACAUGAGGAUCACCCAUGUGGAAUAAAUAAGGAAAAGGAUAUUCAAUAUAGGAUAUAGAAGAAGGUUUGGUUGGUG (Eterna round: R96, puzzle: Same State NG 3)
- apparent KD of MS2 coat protein [1]: 73.5 nM

Sequence: GUGGUCAGACAUGAGGAUCACCCAUGUGGAAUAAAUAAGGAGAAGGAUAUCUAAUAUAGGAUAUAAGAGAAGGUUUGGUUGGUG (Eterna round: R96, puzzle: Same State NG 3)
- apparent KD of MS2 coat protein [1]: 63.2 nM

Sequence: GUGGUCAGACAUGAGGAUCACCCAUGUGGAAUAAAUAAGGAGAAGGAUAUGAAAUAUAGGAUAUAUCAGAAGGUCUGGUUGGUG (Eterna round: R96, puzzle: Same State NG 3)
- apparent KD of MS2 coat protein [1]: 59.9 nM

Sequence: GUGGUCAGACAUGAGGAUCACCCAUGUGGAAUAAAUAAGGAGAAGGAUAUGCAAUAUAGGAUAUAGCAGAAGGUCUGGUUGGUG (Eterna round: R96, puzzle: Same State NG 3)
- apparent KD of MS2 coat protein [1]: 58.5 nM

Sequence: GUGUAUAGCCUCGAGGAUAUCCUGUAAUGCACAUGAGGAUCACCCAUGUAUGAGCGAGUUUUUUGGGAGAAGGCGAGUUAUCGGU [JR_SS002_Sub1709] (Eterna round: R96, puzzle: Same State 2)
- apparent KD of MS2 coat protein [1]: 18 nM

Sequence: GUGUGUUGCGGGCAGGAUAUGUACUUGAGUACAUGAGGAUCACCCAUGUGCGCCUGUUUCAGGCGACAGAAGGGCCUAUCGCGAC [JL-ss2-3.26 ViennaUCT mod] (puzzle: Same State 2)
- apparent KD of MS2 coat protein [2]: 121 nM
- apparent KD of MS2 coat protein [3]: 318 nM
- apparent KD of MS2 coat protein [4]: 1340 nM

Sequence: GUUAAACAUGAGGAUCACCCAUGUAAUAAUAUGGGAGGAUAUCAGAAAUUAUGUAUGAAAUGAGAAGGCCUAAUUG [Mat - Same State 1 - Mod of Eli - D79] (puzzle: Same State 1)
- apparent KD of MS2 coat protein [2]: 89.8 nM
- apparent KD of MS2 coat protein [3]: 244 nM
- apparent KD of MS2 coat protein [4]: 198 nM

Sequence: GUUAAACAUGAGGAUCACCCAUGUCAUCUAAGUCGAGGAUAUGGGAAUUAAUUAAUUAAACCAGAAGGCGAAAAUU [Mat - Same State 1 - D95] (puzzle: Same State 1)
- apparent KD of MS2 coat protein [2]: 59.7 nM
- apparent KD of MS2 coat protein [3]: 756 nM
- apparent KD of MS2 coat protein [4]: 1110 nM
